Reference: the supplement of paper PMC3353916
± gives the standard deviation of the averaged measurements.

System: Sindbis virus TE/5'2J-GFP
Experiment: percent infected (GFP+ in RFP+ ISG-expressing cells); higher = more infection (less antiviral activity)
Experimental: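 Confirmatory testing of 87 ISGs. Triplicate wells of BHK/HA-Zeo (control) or BHK/NZAP-Zeo (ZAP) cells were transduced with lentiviruses co-expressing a human ISG plus TagRFP, then infected 48 h later with SINV TE/5'2J-GFP (moi 5). The % GFP+ cells among RFP+ cells was measured by flow cytometry at 8 h post infection. Fluc lentivirus served as control. Three independent experiments.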

[1] = experiment: confirmatory screen 1, BHK/HA-Zeo (control)
[2] = experiment: confirmatory screen 1, BHK/NZAP-Zeo (ZAP)
[3] = experiment: confirmatory screen 2, BHK/HA-Zeo (control)
[4] = experiment: confirmatory screen 2, BHK/NZAP-Zeo (ZAP)
[5] = experiment: confirmatory screen 3, BHK/HA-Zeo (control)
[6] = experiment: confirmatory screen 3, BHK/NZAP-Zeo (ZAP)
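Further: Interferon-defective BHK-21 derivatives, ZAP line overexpressing the rat ZAP N-terminal zinc finger domain fused to Zeocin resistance, GFP scored within live singlet TagRFP+ cells.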

| Sequence | percent infected [1] [%] | percent infected [2] [%] | percent infected [3] [%] | percent infected [4] [%] | percent infected [5] [%] | percent infected [6] [%] |
| --- | --- | --- | --- | --- | --- | --- |
| MPSLWDRFSSSSTSSSPSSLPRTPTPDRPPRSAWGSATREEGFDRSTSLESSDCESLDSSNSGFGPEEDTAYLDGVSLPDFELLSDPEDEHLCANLMQLLQESLAQARLGSRRPARLLMPSQLVSQVGKELLRLAYSEPCGLRGALLDVCVEQGKSCHSVGQLALDPSLVPTFQLTLVLRLDSRLWPKIQGLFSSANSPFLPGFSQSLTLSTGFRVIKKKLYSSEQLLIEEC [DDIT4] | 95.2 ± 1.2 | 76.2 ± 2.5 | 96.4 ± 0.11 | 94.99 ± 0.17 | 94.1 ± 0.29 | 92.99 ± 0.24 |
| MPVERMRMRPWLEEQINSNTIPGLKWLNKEKKIFQIPWMHAARHGWDVEKDAPLFRNWAIHTGKHQPGVDKPDPKTWKANFRCAMNSLPDIEEVKDKSIKKGNNAFRVYRMLPLSERPSKKGKKPKTEKEDKVKHIKQEPVESSLGLSNGVSDLSPEYAVLTSTIKNEVDSTVNIIVVGQSHLDSNIENQEIVTNPPDICQVVEVTTESDEQPVSMSELYPLQISPVSSYAESETTDSVPSDEESAEGRPHWRKRNIEGKQYLSNMGTRGSYLLPGMASFVTSNKPDLQVTIKEESNPVPYNSSWPPFQDLPLSSSMTPASSSSRPDRETRASVIKKTSDITQARVKSC [IRF2] | 81 ± 3.7 | 2.58 ± 0.4 | 94.34 ± 0.74 | 60.4 ± 1.6 | 89.4 ± 1.2 | 39.2 ± 2.8 |
| MQEGELAISPISPVAAMPPLGTHVQARCEAQINLLGEGGICKLPGRLRIQPALWSREDVLHWLRWAEQEYSLPCTAEHGFEMNGRALCILTKDDFRHRAPSSGDVLYELLQYIKTQRRALVCGPFFGGIFRLKTPTQHSPVPPEEVTGPSQMDTRRGHLLQPPDPGLTSNFGHLDDPGLARWTPGKEESLNLCHCAELGCRTQGVCSFPAMPQAPIDGRIADCRLLWDYVYQLLLDTRYEPYIKWEDKDAKIFRVVDPNGLARLWGNHKNRVNMTYEKMSRALRHYYKLNIIKKEPGQKLLFRFLKTPGKMVQDKHSHLEPLESQEQDRIEFKDKRPEISP [ETV7] | 95.31 ± 0.45 | 67.2 ± 4 | 95.82 ± 0.54 | 95.28 ± 0.2 | 93 ± 1.6 | 93.56 ± 0.55 |
| MRRLWGAARKPSGAGWEKEWAEAPQEAPGAWSGRLGPGRSGRKGRAVPGWASWPAHLALAARPARHLGGAGQGPRPLHSGTAPFHSRASGERQRRLEPQLQHESRCRSSTPADAWRAEAALPVRAMGAPWGSPTAAAGGRRGWRRGRGLPWTVCVLAAAGLTCTALITYACWGQLPPLPWASPTPSRPVGVLLWWEPFGGRDSAPRPPPDCRLRFNISGCRLLTDRASYGEAQAVLFHHRDLVKGPPDWPPPWGIQAHTAEEVDLRVLDYEEAAAAAEALATSSPRPPGQRWVWMNFESPSHSPGLRSLASNLFNWTLSYRADSDVFVPYGYLYPRSHPGDPPSGLAPPLSRKQGLVAWVVSHWDERQARVRYYHQLSQHVTVDVFGRGGPGQPVPEIGLLHTVARYKFYLAFENSQHLDYITEKLWRNALLAGAVPVVLGPDRANYERFVPRGAFIHVDDFPSASSLASYLLFLDRNPAVYRRYFHWRRSYAVHITSFWDEPWCRVCQAVQRAGDRPKSIRNLASWFER [FUT4] | 94.45 ± 0.48 | 62.4 ± 5.3 | 92 ± 1.1 | 94.23 ± 0.27 | 89 ± 2.8 | 92.68 ± 0.55 |
| MRSARSTALNRGEQRAVRYYSHMKLNMAEEEDYMSDSFINVQEDIRPGLPMLRQIREARRKEEKQQEANLKNRQKSLKEEEQERRDIGLKNALGCENKGFALLQKMGYKSGQALGKSGGGIVEPIPLNIKTGKSGIGHEASLKRKAEEKLESYRKKIHMKNQAEEKAAEQFRMRLKNKQDEMKLEGDLRRSQRACQQLDVQKNIQVPREAWYWLRLEEETEEDEEEKEQDEDEYKSEDLSVLEKLQILTSYLREEHLYCIWCGTAYEDKEDLSSNCPGPTSADHD [CCDC75] | 93.8 ± 1.8 | 56.8 ± 4.7 | 96.02 ± 0.47 | 95.39 ± 0.41 | 94.54 ± 0.85 | 92.82 ± 0.32 |
| MRSRLLLSVAHLPTIRETTEEMLLGGPGQEPPPSPSLDDYVRSISRLAQPTSVLDKATAQGQPRPPHRPAQACRKGRPAVSLRDITARFSGQQPTLPMADTVDPLDWLFGESQEKQPSQRDLPRRTGPSAGLWGPHRQMDSSKPMGAPRGRLCEARMPGHSLARPPQDGQQSSDLRSWTFGQSAQAMASRHRPRPSSVLRTLYSHLPVIHEL [C10orf10] | 94.8 ± 1.7 | 63.9 ± 6.1 | 95.247 ± 0.086 | 94.42 ± 0.28 | 94.16 ± 0.87 | 92.8 ± 0.27 |
| MRTSYLLLFTLCLLLSEMASGGNFLTGLGHRSDHYNCVSSGGQCLYSACPIFTKIQGTCYRGKAKCCK [DEFB1] | 97.13 ± 0.85 | 84.4 ± 1.1 | 95.11 ± 0.27 | 92.98 ± 0.91 | 91.66 ± 0.67 | 92.239 ± 0.055 |
| MSEIRKDTLKAILLELECHFTWNLLKEDIDLFEVEDTIGQQLEFLTTKSRLALYNLLAYVKHLKGQNKDALECLEQAEEIIQQEHSDKEEVRSLVTWGNYAWVYYHMDQLEEAQKYTGKIGNVCKKLSSPSNYKLECPETDCEKGWALLKFGGKYYQKAKAAFEKALEVEPDNPEFNIGYAITVYRLDDSDREGSVKSFSLGPLRKAVTLNPDNSYIKVFLALKLQDVHAEAEGEKYIEEILDQISSQPYVLRYAAKFYRRKNSWNKALELLKKALEVTPTSSFLHHQMGLCYRAQMIQIKKATHNRPKGKDKLKVDELISSAIFHFKAAMERDSMFAFAYTDLANMYAEGGQYSNAEDIFRKALRLENITDDHKHQIHYHYGRFQEFHRKSENTAIHHYLEALKVKDRSPLRTKLTSALKKLSTKRLCHNALDVQSLSALGFVYKLEGEKRQAAEYYEKAQKIDPENAEFLTALCELRLSI [IFIT5] | 81.6 ± 2.9 | 50.4 ± 1.2 | 95.17 ± 0.24 | 95.34 ± 0.45 | 88.13 ± 0.37 | 90.56 ± 0.79 |
| MSIMDHSPTTGVVTVIVILIAIAALGALILGCWCYLRLQRISQSEDEESIVGDGETKEPFLLVQYSAKGPCVERKAKLMTPNGPEVHG [SNN] | 95.8 ± 1.9 | 86.47 ± 0.82 | 96.15 ± 0.19 | 95.59 ± 0.2 | 93.27 ± 0.64 | 92.87 ± 0.32 |
| MSLRGSLSRLLQTRVHSILKKSVHSVAVIGAPFSQGQKRKGVEHGPAAIREAGLMKRLSSLGCHLKDFGDLSFTPVPKDDLYNNLIVNPRSVGLANQELAEVVSRAVSDGYSCVTLGGDHSLAIGTISGHARHCPDLCVVWVDAHADINTPLTTSSGNLHGQPVSFLLRELQDKVPQLPGFSWIKPCISSASIVYIGLRDVDPPEHFILKNYDIQYFSMRDIDRLGIQKVMERTFDLLIGKRQRPIHLSFDIDAFDPTLAPATGTPVVGGLTYREGMYIAEEIHNTGLLSALDLVEVNPQLATSEEEAKTTANLAVDVIASSFGQTREGGHIVYDQLPTPSSPDESENQARVRI [ARG2] | 93.279 ± 0.073 | 64 ± 4.9 | 95.82 ± 0.36 | 95.52 ± 0.29 | 92.68 ± 0.49 | 93.532 ± 0.087 |
